This note sets out measurements from the supplement of paper PMC10567573.

The data set in a line: protein stability index of a GFP-peptide fusion (GPS, HEK-293T) (PSI 1-6); higher = more stable.
Setting [1] is: treatment: DMSO, c terminus: a fixed tail appended.
Where [2] appears, read: treatment: MLN4924 1 uM, 8 h, c terminus: a fixed tail appended.

± gives the standard deviation.
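Further: 24-mer peptide tiles fused after GFP, lentivirally expressed, FACS-sorted into six equal bins by GFP/DsRed ratio, decoded by Illumina sequencing, PSI is the read-weighted mean bin number.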

As to HVLHHGTGKWYELQDLQVTDILPQ [USP39], the protein stability index is, setting by setting: under setting [1], 2.82 ± 0.4; under setting [2], 2.95 ± 0.39.
In the case of CLESTKLLADLKKCGDLECEALIN [MIA2], the protein stability index is, setting by setting: under setting [1], 3 ± 0.32; under setting [2], 3.25 ± 0.14.
Regarding GEQPQFWSKTQVLDWISYQVEKNK [ELF3], the protein stability index came out at 3.02 ± 0.13 under setting [1] and 3.29 ± 0.33 under setting [2].
Regarding SDLNVVASFDRRGEYIYTGNAKGK [RBBP5], the protein stability index under setting [1] was 4.32 ± 0.6 and the protein stability index under setting [2] was found to be 4.4 ± 0.26.
For DEAQGACLQQKQVVAEAQTRVSQL [LRRC45] the same measures were 5.23 ± 0.12 and 5.09 ± 0.31.
For SSSVSISHSASATGNVCIEEIDVD [LMNB1], the protein stability index was 5.38 ± 0.15 under setting [1] and 5.4 ± 0.21 under setting [2].
Regarding RKSSFAFYQAVRDLLPVWLLEDMR [ANKRD9], the protein stability index was found to be 3.03 ± 0.99 under setting [1] and 2.21 ± 0.38 under setting [2].
EQLMYIKEDLIIPHHHSFYDFIVT [FAM50A] had a protein stability index under setting [1] of 2.42 ± 0.21 and a protein stability index under setting [2] of 2.27 ± 0.21.
Turning to QTSAFARQPRDELERVRVSCTIIF [TMEM175], the protein stability index is, setting by setting: under setting [1], 2.46 ± 0.55; under setting [2], 2.62 ± 0.61.
With DLASAAAKQIMEETYKMEFMYSGV [INTS4], the protein stability index is 2.58 ± 0.52 under setting [1] and 2.5 ± 0.16 under setting [2].
In the case of RQIVSGLKYLHEQEILHRDLKLGN [PLK2], the protein stability index turned out to be 2.52 ± 0.21 under setting [1] and 2.7 ± 0.48 under setting [2].
The sequence EDVRIFFYQSPYDSEQVPQALRRL [NCF4] gave a protein stability index under setting [1] of 2.79 ± 0.31 and a protein stability index under setting [2] of 2.98 ± 0.4.
As to STGTSRWPSAKSAGWTLATLGEQG [SCNN1D], the protein stability index is 3.17 ± 0.16 under setting [1] and 3.16 ± 0.31 under setting [2].
Turning to EEDKRRKGEEVTPISAIRHEGKTD [EPB41L3], the protein stability index runs as follows: under setting [1], 5.59 ± 0.23; under setting [2], 5.66 ± 0.13.
With SPVVAMTSRRSGVGLAVVNGQLMA [KLHL20], the protein stability index by setting is: under setting [1], 2.88 ± 0.36; under setting [2], 2.95 ± 0.43.
VCTISSTGPLQPQPKKPEDEPQET [PKD2L1]: the protein stability index under setting [1] worked out at 5.39 ± 0.21 and the protein stability index under setting [2] was 5.48 ± 0.16.
On to SEEMVKMVLSRPCHPDDQFTTSIL [INTS3], for which the protein stability index by setting is: under setting [1], 2.94 ± 0.34; under setting [2], 2.98 ± 0.39.
Turning to CDPGMTAFEPEALGNLVEGLDFHR [CAMK2A], the protein stability index came out at 4.17 ± 0.096 under setting [1] and 4.2 ± 0.19 under setting [2].
For the sequence SIYGIPHSTLEYKVKERLGTLKNP [LCOR], the protein stability index is, setting by setting: under setting [1], 3.12 ± 0.31; under setting [2], 3.2 ± 0.52.
Consider EPYARLPPHKHVARPTEVLAGTQL [TRIB3], for which the protein stability index stood at 4.05 ± 0.1 under setting [1] and 3.88 ± 0.28 under setting [2].
For the sequence LEATVKKLEESKQLLKNNEKLITW [SASS6], the protein stability index by setting is: under setting [1], 2.73 ± 1.2; under setting [2], 3.44 ± 0.62.
The like results for EFISSTKRPYAKELETVDFKDKLE [SERPINB5] were, in that order, 3.98 ± 0.24 and 4.32 ± 0.13.
The like results for VDRCGASVEAGGSVHFDGETIEGA [FEM1A] were, in that order, 4.87 ± 0.24 and 4.92 ± 0.18.
For KCYLNGVKVPGIVRLRTLLCKVLG [CLCN6], the protein stability index runs as follows: under setting [1], 2.93 ± 0.43; under setting [2], 2.77 ± 0.36.
PTVTIEGFLQALSLAVDKQFEERK [TRIP13] gave a protein stability index under setting [1] of 2.29 ± 0.61 and a protein stability index under setting [2] of 2.13 ± 0.44.
Consider KKSGEKEQHISKCKKAFREGSRKS [KMT2E], for which the protein stability index came out at 4.23 ± 0.78 under setting [1] and 4.61 ± 0.27 under setting [2].
Turning to LDNLLAFVCDIRPEIHENYRING [ATP6V1G1], the protein stability index was found to be 2.27 ± 0.49 (treatment: DMSO, c terminus: native) and 2.47 ± 0.21 (treatment: MLN4924 1 uM, 8 h, c terminus: native).
For the sequence NSTPLRAACFDGRLDIVKYLVENN [FEM1B], the protein stability index stood at 2.84 ± 0.19 under setting [1] and 3.01 ± 0.21 under setting [2].
As to NDFSYLHTNCFELSIYVGCDKYPH [CPXM2], the protein stability index is, setting by setting: under setting [1], 2.5 ± 0.18; under setting [2], 2.25 ± 0.37.
For NCGKSFSRLTALTLHQRTHTEERP [ZNF449] the same measures were 3.38 ± 0.27 and 3.36 ± 0.26.
The like results for RAGTEPSDAIRVVNAVLTQIDQIK [TRIP13] were, in that order, 3.37 ± 0.15 and 3.04 ± 0.27.
The like results for SLMDLAIEEGFNPVQASQLEEEFD [NFE2L1] were, in that order, 5.35 ± 0.35 and 5.49 ± 0.12.
As to CIFDKFECVWNGSDSVIMTGSYNN [PPP2R2B], the protein stability index under setting [1] came to 2.27 ± 0.34 and the protein stability index under setting [2] came out at 2.21 ± 0.14.
For RPMSEPGAGAGSSLLDVAEPGGPG [SMAD6], the protein stability index by setting is: under setting [1], 5.11 ± 0.3; under setting [2], 5.39 ± 0.16.
With ISGGFDRTVAIWDVAEGYRKLSLK [WDR88], the protein stability index was determined as 3.09 ± 0.49 under setting [1] and 3.02 ± 0.36 under setting [2].
With KGLLKKGACYGDDACFVARHRSAD [PPTC7], the protein stability index under setting [1] was found to be 4.16 ± 0.56 and the protein stability index under setting [2] is 4.05 ± 0.25.
Regarding CCVKTELLGEETPMAADEGSAEKQ [EHMT1], the protein stability index amounted to 5.45 ± 0.22 under setting [1] and 5.47 ± 0.12 under setting [2].
Turning to YEAGQVTLHNAQTQEPIFTFTASF [TRIM15], the protein stability index was determined as 2.38 ± 0.17 under setting [1] and 2.11 ± 0.15 under setting [2].
For the sequence RAMKIPFTNDKIINLPVEEFNELL [NFE2L1], the protein stability index by setting is: under setting [1], 2.87 ± 0.2; under setting [2], 3.01 ± 0.67.
Regarding DRSTEPDRLQVFHKRAIMPYGVYK [ATE1], the protein stability index by setting is: under setting [1], 3.44 ± 0.24; under setting [2], 3.47 ± 0.26.
For DSGASAITRESHTHRDRPSQQQPL [CSNK1G1] the same measures were 5.09 ± 0.15 and 5.15 ± 0.17.
Take IEEDMNNSIAHYRQVNIRTANCTT [KCNA1]: the protein stability index under setting [1] was determined as 3.71 ± 0.55 and the protein stability index under setting [2] was 3.57 ± 0.48.
As for PPLPTYHVLLEGEGLGQSLGNFKD [TRIM29], the protein stability index runs as follows: under setting [1], 3.8 ± 0.085; under setting [2], 3.7 ± 0.14.
Regarding RLKKVENIKIWLSLRSYLKRRGPQ [PHTF1], the protein stability index runs as follows: under setting [1], 2 ± 0.65; under setting [2], 2.25 ± 0.64.
Take YVWVPIEQCLPSLENSKYCRFNQD [ATE1]: the protein stability index was 2.3 ± 0.4 under setting [1] and 2.19 ± 0.12 under setting [2].
Turning to FQEQVEKLKALHVDSAEYSCLKAI [NR2F2], the protein stability index amounted to 3.61 ± 0.2 under setting [1] and 3.74 ± 0.23 under setting [2].
LESLQDGAAESPYAYSNGIDYKTT [RAB40C] registered a protein stability index under setting [1] of 4.29 ± 0.34 and a protein stability index under setting [2] of 4.5 ± 0.16.
The like results for VKTWFQNQRMKSKRWQKNNWPKNS [NANOGP8] were, in that order, 2.21 ± 0.57 and 2.42 ± 0.38.
IWAFLDVSFVERILKSQKERQCAL [FBXO39] registered a protein stability index under setting [1] of 2.41 ± 0.53 and a protein stability index under setting [2] of 2.24 ± 0.17.
As to GGNVECIKLLQSSGADFHKKDKCG [ANKRD44], the protein stability index under setting [1] stood at 4.48 ± 0.17 and the protein stability index under setting [2] was found to be 4.38 ± 0.1.
Consider AEGRTGFPWIDAIMTQLRQEGWIH [CRY1], for which the protein stability index by setting is: under setting [1], 2.35 ± 0.3; under setting [2], 2.13 ± 0.33.
Consider RIDGKLDSPSRSPSKVEVTEKTTT [C2CD2L], for which the protein stability index under setting [1] was 5.42 ± 0.21 and the protein stability index under setting [2] is 5.46 ± 0.11.
With TPSQEHLKHQTVYRLLKCAPRGKN [FEM1A], the protein stability index came out at 3.61 ± 0.15 under setting [1] and 3.62 ± 0.12 under setting [2].
For the sequence FREDGAYEFNPDFLEEAHEWNQKR [N4BP2L1], the protein stability index by setting is: under setting [1], 4.71 ± 0.16; under setting [2], 4.53 ± 0.26.
In the case of PGVHRRYSALREESAKDWETSPLP [PPFIA4], the protein stability index reads like this: under setting [1], 4.04 ± 0.31; under setting [2], 4.43 ± 0.27.
In the case of LLESSSSYKNLTLKFHKLVNVTIH [MCOLN1], the protein stability index was 2.58 ± 0.41 under setting [1] and 2.33 ± 0.55 under setting [2].
As to QLEKPKPVKPVTFSTGIKMGQHIS [MNAT1], the protein stability index is, setting by setting: under setting [1], 3.36 ± 0.15; under setting [2], 3.44 ± 0.41.
For KRKKLSTWKQELLKLMDRHKKDCA [ZNF75A] the same measures were 2.7 ± 0.15 and 2.83 ± 0.21.
With PMPWLVLSEIFPGGIRGRAMALTS [SLC2A12], the protein stability index reads like this: under setting [1], 2.5 ± 0.16; under setting [2], 2.33 ± 0.38.
In the case of ALKEKEKASWSSLSMDEKVELYRI [COX4I1], the protein stability index runs as follows: under setting [1], 3.65 ± 0.27; under setting [2], 3.95 ± 0.23.
The like results for LVHTQEPGEWLELLLEPGSLYILR [ALKBH7] were, in that order, 2.38 ± 1 and 2.23 ± 0.28.
Turning to EKKGLHEKALQVLVDQSKKANSPL [VPS39], the protein stability index is 4.65 ± 0.21 under setting [1] and 4.67 ± 0.18 under setting [2].
For the sequence VRNDSCVVHEDFREDILSCYDVYS [PKD2L1], the protein stability index by setting is: under setting [1], 2.99 ± 0.34; under setting [2], 3.16 ± 0.28.
Sequence TSFSNYYRTWNVVVHDWLYSYVYQ [SOAT2] had a protein stability index under setting [1] of 3.11 ± 0.27 and a protein stability index under setting [2] of 3.01 ± 0.4.
As to LPPYPPYFEGAPFPHPLWLRDTYK [PWWP2B], the protein stability index by setting is: under setting [1], 2.54 ± 0.39; under setting [2], 2.5 ± 0.12.
The like results for GETGSGDQAGGEGKHITVFKTYIS [MYOZ1] were, in that order, 3.97 ± 0.14 and 4.06 ± 0.15.
In the case of YIPSSYVDSHHEYPAMTFYSPAVM [ESR2], the protein stability index turned out to be 2.73 ± 0.93 under setting [1] and 2.6 ± 0.45 under setting [2].
In the case of AGGRVFVLPCIQQIQRISLNTLTL [FLOT1], the protein stability index is 2.96 ± 0.57 under setting [1] and 2.93 ± 0.59 under setting [2].
Regarding AIHGYTVWAHNLIAIARLRGSDLK [FBXO33], the protein stability index reads like this: under setting [1], 3.13 ± 0.8; under setting [2], 2.46 ± 0.42.
For IEDAAEPKEPAPPNGSAAEPPTEA [PALM], the protein stability index is 5.54 ± 0.24 under setting [1] and 5.47 ± 0.22 under setting [2].
Turning to IVATLLILDICEDNVPDPKDVKER [TMEM175], the protein stability index reads like this: under setting [1], 2.46 ± 0.67; under setting [2], 2.49 ± 0.37.
Take VFITILIIALIALSVGQYNCPGQY [CD69]: the protein stability index runs as follows: under setting [1], 2.6 ± 0.38; under setting [2], 2.61 ± 0.57.
